Here are results for 19 sequences from the DeepSol protein solubility set.

This data set in a line: soluble on expression in E. coli; label from the status in PepcDB or PDB records.
For “MSLNDEMKGKSGKVKVMYVRSDDDSDKRTHNPRTGKGGGRPGKSRADGGRRPARDDKQSQPRDRKWEDSPWRTVSRAPGDETPEKADHGGISGKSFIDPEVLRRQRAEETRVYGENACQALFQSRPEAIVRAWFIQSVTPRFKEALRWMAANRKAYHVVDEAELTKASGTEHHGGVCFLIKKRNGTTVQQWVSQAGAQDCVLALENESNPHNLGGMMRSCAHFGVKGVVVQDAALLESGAAIRTAEGGAEHVQPITGDNIVNVLDDFRQAGYTVVTTSSEQGKPLFKTSLPAKMVLVLGQEYEGLPDAARDPNDLRVKIDGTGNVAGLNISVATGVLLGEWWRQNKAEGHHHHHH”, the “soluble on expression in E. coli” value is listed as “soluble”.
Regarding “MTGPVTRADPTPGLRTGRRPGNPDTRSRILAAARKLFAQNGFDKTSVRSVATGAGVDSALIHHYFGTKRELFLASVDIPVDPTQVIAPVLDIPTGEVGSHLARAVFSVWESPHKPAVVAAFRSAMAGNEPNLIRTFLLEVVLRDLGPRVDEPPGTGMLRMQLVASQMAGVLVTRYILEFEPLASLPVDDLVAIVGPTLQRYLTGALP”, the “soluble on expression in E. coli” value is listed as “not soluble”.
With “MRWNLDPTHTSVEFAVRHMMIATVRGTMGLKEGYVETDETGKPIRVEARLDAASIHTGVADRDNHLRSPDFLDVANHPEIVFRSEKITPLGEGRYRVEGEVTIRGVTRPLAFEVETHGPAKDPWGNERIAAHFEGKLNRKDFGLTWNMPLETGGLLVGEEVRFSVDTQAVKAKEAVAQ”, the “soluble on expression in E. coli” value is recorded as “soluble”.
As to “MDFHLRNKLNLPGNLPQPPNTNLNLPPNVPALLIQSSIKYSELEKFVRRGLHASGVFVIEDPTTTGVAQLKILSERWGDLPTAIDIQGRAQEYSLRYAAIFTLIDGNGEVVVPQQVIELSRDYRSPPVDATGTTTEREILVNELRRDMSASILRRIDSVIRSRLEKRELLEQAKPPSPATSGALEHHHHHH”, the “soluble on expression in E. coli” value is “not soluble”.
As for “MWPAIIQQLSEQLGKDFHLVEKEKVHGGDINECFMVSDGIDRYFVKTNQREYLTKFTAEVENLRVMRESNTVQVPEYILHGTSKTHAYLVLNYLATKPLDDAERSYEFGVQLANLHRWGEQKEFGFDIDNYIGATVQPNPWHKKWALFFAEQRIGWQLQLMQEKGVNLTNINEFVEMVKTRLANHSPRPSLLHGDLWFGNVANIVNGPLCFDPACYWGDRECDIALAEWFGGFQPEFFQGYESVWPLDWGYEERKDIYNLYHVLNHYNQFGGHYLDEAQKLIEKILSYLEHHHHHH”, the “soluble on expression in E. coli” value was “not soluble”.
In the case of “MAHHHHHHMNNTNIVTFSPKLKYSINDVVHRDREVKEYHLQIDREASDILFFCTIKPKQVSELLEGEVKINLKREVGEQYSVASEDGTHVCDFSKGNLNISPSAGFNYKHDRSVSCIYLVIPNKLFLIKLPKLNIVTEQFLPNLVSCLSEYSFINFNLKHVEESDDSISLHLSFGDFKKNFNVSCAFDLSEYAVEPCSLGKKGIVTFYFNA”, the “soluble on expression in E. coli” value is “not soluble”.
As to “METRAAENTAIFMCKCCNLFSPNQSELLSHVSEKHMEEGVNVDEIIIPLRPLSTPEPPNSSKTRDEFLVMKRKRGRPKGSTKKSSTEEELAENIVSPTEDSPLAPEEGNSLPPSSLECSKCCRKFSNTRQLRKHICIIVLNLGEEEGEAGNESDLELEKKCKEDDREKASKRPRSQKTEKVQKISGKEARQLSGAKKPIISVVLTAHEAIPGATKIVPVEAGPPETGATNSETTSADLVPRRGYQEYAIQQTPYEQPMKSSRLGPTQLKIFTCEYCNKVFKFKHSLQAHLRIHTNEKPYKCPQCSYASAIKANLNVHLRKHTGEKFACDYCSFTCLSKGHLKVHIERVHKKIKQHCRFCKKKYSDVKNLIKHIRDAHDPQDKKVKEALDELCLMTREGKRQLLYDCHICERKFKNELDRDRHMLVHGDKWPFACELCGHGATKYQALELHVRKHPFVYVCAVCRKKFVSSIRLRTHIKEVHGAAQEALVFTSSINQSFCLLEPGGDIQQEALGDQLQLVEEEFALQGVNALKEEACPGDTQLEEGRKEPEAPGEMPAPAVHLASPQAESTALPPCELETTVVSSSDLHSQEVVSDDFLLKNDTSSAEAHAAPEKPPDMQHRSSVQTQGEVITLLLSKAQSAGSDQESHGAQSPLGEGQNMAVLSAGDPDPSRCLRSNPAEASDLLPPVAGGGDTITHQPDSCKAAPEHRSGITAFMKVLNSLQKKQMNTSLCERIRKVYGDLECEYCGKLFWYQVHFDMHVRTHTREHLYYCSQCHYSSITKNCLKRHVIQKHSNILLKCPTDGCDYSTPDKYKLQAHLKVHTALDKRSYSCPVCEKSFSEDRLIKSHIKTNHPEVSMSTISEVLGRRVQLKGLIGKRAMKCPYCDFYFMKNGSDLQRHIWAHEGVKPFKCSLCEYATRSKSNLKAHMNRHSTEKTHLCDMCGKKFKSKGTLKSHKLLHTADGKQFKCTVCDYTAAQKPQLLRHMEQHVSFKPFRCAHCHYSCNISGSLKRHYNRKHPNEEYANVGTGELAAEVLIQQGGLKCPVCSFVYGTKWEFNRHLKNKHGLKVVEIDGDPKWETATEAPEEPSTQYLHITEAEEDVQGTQAAVAALQDLRYTSESGDRLDPTAVNILQQIIELGAETHDATALASVVAMAPGTVTVVKQVTEEEPSSNHTVMIQETVQQASVELAEQHHLVVSSDDVEGIETVTVYTQGGEASEFIVYVQEAMQPVEEQAVEQPAQEL”, the “soluble on expression in E. coli” value was “soluble”.
In the case of “MAHHHHHHMDREDDKKNKFPFTQNNCVVVRSKLDRKNISKMKLSDEQVTANEEITKSVLLKEVNMQDAYDQIGKNANDFSRIYNLFERELLNKSNIKNVYINGIKKNIIVDDGHMKTKVEKKSLKLIDEIHLTYKKRPIILIEKESSNHIINRNNVESFFVHNCLDNSGANRKGTHAASGGGEGAVTGPYNSIPIIYKMFNKKKSIKFSFIENDQISKLTETDWKCVIAVIIKSKESLKDILNEYPFEIPTALFQPFKSFFFMFNDVIIPSDLLTGGNVDIIRLSRDKRKEDYLAVNKFWTNIEKFILQRRDKSCYTRKKKF”, the “soluble on expression in E. coli” value is reported as “not soluble”.
On to “MKIALMMENSQAAKNAMVAGELNSVAGGLGHDVFNVGMTDENDHHLTYIHLGIMASILLNSKAVDFVVTGCGTGQGALMSCNLHPGVVCGYCLEPSDAFLFNQINNGNAISLAFAKGFGWAGELNVRYIFEKAFTGKRGEGYPIERAAPQQANAAILNNVKAAVAKDVVEGLRAIDQELVKTAVGSTQFQECFFAHCQVPEIAEYVKSLLD”, for which the “soluble on expression in E. coli” value was “soluble”.
The result for “MGSDKIHHHHHHMPFVSYAQNLEDVRLWRALKLFPRGFYIDVGANHPRIDSVTLAFYERGWRGINIEPLPHLHRELERERPEDLNLNLAIGEREGRATLYEMAASGLSTLDPELARQRQAEGCTATPREVKVSTLDAICAAHVEGPIHFLKIDVEGLEGAVLRGLDLNRWRPWLILAETPFDHDPEWKAPLLAAGYRFVHFDGLNGYYLAEEQARLEGAFALPPNLLDDFQLCHGHAMSHPVAPLEQALEQALQRAEDAERALRDWRALPWYRRLFG” reads “not soluble”; that for “MRGSHHHHHHGSGKSYPTVSADYQKAVEKAKKKLRGFIAEKRCAPLMLRLAWHSAGTFDKGTKTGGPFGTIKHPAELAHSANNGLDIAVRLLEPLKAEFPILSYADFYQLAGVVAVEVTGGPEVPFHPGREDKPEPPPEGRLPDATKGSDHLRDVFGKAMGLTDQDIVALSGGHTIGAAHKERSGFEGPWTSNPLIFDNSYFTELLSGEKEGLLQLPSDKALLSDPVFRPLVDKYAADEDAFFADYAEAHQKLSELGFADAHEM”, “soluble”; that for “QLTPTFYDNSCPNVSNIVRDTIVNELRSDPRIAASILRLHFHDCFVNGCDASILLDNTTSFRTEKDAFGNANSARGFPVIDRMKAAVESACPRTVSCADLLTIAAQQSVTLAGGPSWRVPLGRRDSLQAFLDLANANLPAPFFTLPQLKDSFRNVGLNRSSDLVALSGGHTFGKNQCRFIMDRLYNFSNTGLPDPTLNTTYLQTLRGLCPLNGNLSALVDFDLRTPTIFDNKYYVNLEEQKGLIQSDQELFSSPNATDTIPLVRSFANSTQTFFNAFVEAMDRMGNITPLTGTQGQIRLNCRVVNSNSLLHDMVEVVDFVSSM”, “soluble”.
The result for “MSKLDTIFEVVISRDKMEATLKQHEPFPEDHPVTKDELLSFMKEHGVVFGVKESVIDQVVKSEKGLTSSVKVAEGLQPQNGKHGYLQPIQHEEEERDVHSISAMNLRDVLSIPEVKQGQVIGKKIPATLGEDGMNVLGEPIKAKPGREFVLRPGKNSTVDEANGTLVAAVDGQMSVDKRTIHVYPVYEVPGDLTMKHGNISFIGNVIIRGHVPDGFVVKAGGDIRVFGTVEGATLEAGGSIFVGAGIVGQNRGCIRAEGGLHTTFINQAKVEVGGDIEVVQSILHSTCTAGGKIICTRGKGNIVGGALSAEDHIYAKEIGNSMHTKTSLYIGAKEKWVTKEKQLAKEYKTTEEELKKLSLLLQKFQELEKENGLTANGRVQRLRVKNTLVQVKEKHEQIKEQLEDVQENLTLNQAGSIVVEQTLYPNVSAHFGKYRRKIVSNHSNVKLSLVDQEIQLSSRLEHHHHHH” reads “soluble”; that for “MSLSLRRIDHVSLRVRDVEEASRRWSAQFGLAVRERDGRRARLACDDEPYCLELLAAEAPGVEHVAYELRRSCTLEEAGRHFEGLGVPYEEHAGGLRVADPDGNRVLVLPYREPRERWVSHARAATDQIVGHPRRLGHVNFLTGRLSEGVEFYTRALGMRITDWLGEGGVWFHINADHHVMALVDKGYPHFHHLAFDVVDIGQMRVALDHLGRHGRWLGWGPVRHGIGGNIASYVRIVEEECFVELYCDMEQLEADHEVRRWPDNRFSSNTWGPLPPRSYFRFDEAAVASERESLEMLGHPLKEEVSSEGHHHHHH”, “soluble”; that for “MKPTLFLLAAGMGSRYGGLKQLDGLGPNGETIMDYSIYDAINAGFGKLVFVIRKDFEQDFREKIISKYEGHIPCELVFQSIDDLPEGFTCPADRTKPWGTNHAVMMGADVISEPFAVINCDDFYGRDSFQVMGKFLSALPENSKNVYSMVGFRVGNTLSESGTVSRGICSTDANNLLTSVVERTKIQRLDGEVKYIDDNGEWTATPDTTPVSMNFWGFTPDYFAYSEEFFKTFLSDPKNMENLKSEFFIPLMVDKLINDGTATVEVLDTTSKWFGVTYPEDRQSVVDKIQALVDAGEYPAKLF”, “not soluble”.
Regarding “GAMAEYEIDEITFHKRLGILLTSWKNEEDGKTLFQDCDSILVTVGAHDDTNPYQKSTALHTWLLGYEFPSTLILLEKHRITILTSVNKANMLTKLAETKGAAADVNILKRTKDAEENKKLFEKIIEYIRATNKKVGVFPKDKTQGKFINEWDSIFEPVKSEFNLVDASLGLAKCLAIKDEQELANIKGASRVSVAVMSKYFVDELSTYIDQGKKITHSKFSDQMESLIDNEAFFQTKSLKLGDIDLDQLEWCYTPIIQSGGSYDLKPSAITDDRNLHGDVVLCSLGFRYKSYCSNVGRTYLFDPDSEQQKNYSFLVALQKKLFEYCRDGAVIGDIYTKILGLIRAKRPDLEPNFVRNLGAGIGIEFRESSLLVNAKNPRVLQAGMTLNLSIGFGNLINPHPKNSQSKEYALLLIDTIQITRSDPIVFTDSPKAQGDISYFFGED”, the “soluble on expression in E. coli” value is “soluble”.
As for “GSLPEVLQAPVGSSILVQCHYRLQDVKAQKVWCRFLPEGCQPLVSSAVDRRAPAGRRTFLTDLGGGLLQVEMVTLQEEDAGEYGCMVDGARGPQILHRVSLNILPP”, the “soluble on expression in E. coli” value is given as “soluble”.
As for “GPGSNYTFSMRATLDDPDVQNGITQGDRQQIQDAVNAASSWLEKNREATKEEYMEQTKLIEGIAHPILSEFYKKRVMEAPPSAGPKDGAPSDEVPHAEDVD”, the “soluble on expression in E. coli” value is “soluble”.
“MGSDKIHHHHHHMRSFTQSSKPIFKDHIVQQSSLVANNYRFIGPRLIDNTPVLFGSFSVVQLNPHLILHTADVINRHNMKTQNLLDSAIKLAIVVSGNAHISFGHQELHLGESQPASLIALTEPTMFTRIGKRDEYERTITLTFDREWLYGNMMDTVGDWQAIHDFTQTHLATHLWTPSRQARAIALQTLDANPCQTPLQRLYLETQCMSLIIEAFTSLTASVAQEKSSGVTLRGYHRIQQIRDMLESGSADHLSMSEIAKSVNMSESTLQRHFRQTFNMSVFEYLRNCRLQRAMLALQKDGIGIAQAASIAGYNSPANFATALRRAFGITPGQLKDRF”: the “soluble on expression in E. coli” value is “not soluble”.
